Results from article PMC1352370.
Each block holds one substance with its values, some of them ahead of it.

Experiments:
[1] = target: APEG-1 (Homo sapiens) (UniProt Q15772); assay: analytical ultracentrifugation (sedimentation equilibrium)
[2] = target: Aortic Preferentially Expressed Protein-1 (APEG-1), full-length construct (2-113) (human); assay: AUC; sedimentation equilibrium, dimer to monomers; 15 mM Tris-HCl pH 7.4, 0.1 M NaCl, 0.1 mM EDTA, 0.2% NaN3, 10°C; Kd from concentration-dependent Mw
[3] = target: ΔAPEG-1, truncated Aortic Preferentially Expressed Protein-1 (15-113) (human); assay: as above
[4] = target: ΔAPEG-1, truncated Aortic Preferentially Expressed Protein-1 (15-113) (human); assay: AUC; sedimentation equilibrium, dimer to monomers; 0 mM NaCl (salt series)

Chain of Aortic Preferentially Expressed Protein-1 (APEG-1), full-length construct (2-113) (natural protein) (Q15772 2-113): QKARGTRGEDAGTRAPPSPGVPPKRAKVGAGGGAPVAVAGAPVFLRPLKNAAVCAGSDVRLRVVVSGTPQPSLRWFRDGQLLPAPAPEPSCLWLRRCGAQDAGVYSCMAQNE

- Kd [1]: 2 µM
Substance: APEG-1, Q15772

- Kd [2]: 20 µM
- stoichiometry N [2]: 2
Substance: Aortic Preferentially Expressed Protein-1 (APEG-1), full-length construct (2-113) (natural protein)

- Kd [3]: 20 µM
- stoichiometry N [3]: 2
- Kd [4]: 2 to 200 µM
Substance: ΔAPEG-1, truncated Aortic Preferentially Expressed Protein-1 (15-113) (domain or fragment)
